The text below walks through data of patent EP1481685A1.

Where two headings read alike, the source gives them in different places.

Common to all, as to test: cell-based or functional assay
The target in test [1] is adenylyl cyclase (AC) in rat spinal cord lysates / membranes (major isoforms AC type 5 and 6).
For test [2], the target named is adenylyl cyclase (AC) in rat dorsal root ganglia (DRG) lysates (predominant isoforms AC type 4 and 6).
For test [3], the target named is adenylyl cyclase (AC) in rat spinal cord lysates / membranes (major isoforms AC type 5 and 6). The source holds these as a separate data set.

On to “PAM (Protein Associated with Myc), full length, purified from HeLa cells (from UniProt O75592 1-4678)”, for which, in test [1], the inhibition of Gαs-stimulated AC activity, spinal cord lysates from animals treated 1 hour with formalin, 30 nM PAM (% inhibition at 30 nM) is 25; the inhibition of Gαs-stimulated AC activity, spinal cord lysates from rats 96 hours after zymosan injection, 30 nM PAM (% inhibition at 30 nM) worked out at 70; the inhibition of Gαs-stimulated AC activity, spinal cord lysates of control animals, 30 nM PAM (% inhibition at 30 nM) came out at 49; the inhibition of Gαs-stimulated AC activity, spinal cord preparations of zymosan-treated animals was determined as 75 % inhibition. The substance further yielded an inhibition of Gαs-stimulated AC activity, DRG lysates, 30 nM PAM (% inhibition at 30 nM) in test [2] of 32. Moreover, in test [3], the inhibition of Gαs-stimulated AC activity, spinal cord lysates of control animals, 30 nM PAM (% inhibition at 30 nM) came out at 50.
